According to patent US20240018240A1 (Hoffmann-La Roche, published 2024):

Experiments:
[1] = molecular target: T1, Human CD3ε stalk-Fc(knob)-Avi/CD3δ stalk-Fc(hole) (human); assay: SPR (Biacore T200, 25°C), TCB format, same conditions
T1 construct: Heterodimer of CD3 delta and CD3 epsilon ectodomains fused to a human Fc domain with knob-into-hole modifications and C-terminal Avi-tag; also called human CD3ε/δ; CD3ε/δ
Text: (§1) For affinity measurements, TCB molecules were captured on a C1 sensorchip (GE Healthcare) surface with immobilized anti-Fc (P329G) IgG (an antibody that specifically binds human IgG₁ Fc (P329G); “anti-PG antibody”—see WO 2017/072210, incorporated herein by reference). The experimental setup is schematically depicted in FIG. 3. Capture IgG was coupled to the sensorchip surface by direct immobilization of around 400 resonance units (RU) using the standard amine coupling kit (GE Healthcare Life Sciences).
(§2) To analyze the interaction to CD3, TCB molecules were captured for 80 s at 25 nM with a flow rate of 10 μl/min. Human and cynomolgus CD3ε stalk-Fc(knob)-Avi/CD3δ stalk-Fc(hole) (CD3ε/δ, see SEQ ID NOs 24 and 25 (human) and SEQ ID NOs 26 and 27 (cynomolgus)) were passed at a concentration of 0.122-125 nM with a flow rate of 30 μl/min through the flow cells for 300 s. The dissociation was monitored for 800 s.
(§3) Kinetic constants were derived using the Biacore T200 Evaluation Software (GE Healthcare Life Sciences), to fit rate equations for 1:1 Langmuir binding by numerical integration. The half-life (t_{1/2}) of the interaction was calculated using the formula t_{1/2}=ln 2/koff.

[2] = molecular target: T1, Human CD3ε stalk-Fc(knob)-Avi/CD3δ …; assay: SPR (Biacore T200, 25°C), TCB format, monovalent binding
Text: as §1, §2, §3

[3] = molecular target: T1, Human CD3ε stalk-Fc(knob)-Avi/CD3δ …; assay: SPR (Biacore T200, 25°C); TCB captured by anti-PG antibody on C1 chip, CD3ε/δ-Fc as analyte; 1:1 Langmuir fit
Text: as §1, §2, §3

[4] = molecular target: T2, Cynomolgus CD3ε stalk-Fc(knob)-Avi/CD3δ stalk-Fc(hole) (cynomolgus); assay: as above
T2 construct: Heterodimeric Fc fusion, soluble analyte in SPR; also called cynomolgus CD3ε/δ
Text: as §1, §2, §3

[5] = molecular target: T1, Human CD3ε stalk-Fc(knob)-Avi/CD3δ …; assay: SPR (Biacore T200, 25°C); TCB captured by anti-PG antibody on C1 chip, CD3ε/δ-Fc as analyte; t1/2 = ln 2/koff
Text: as §1, §2, §3

[6] = molecular target: T2, Cynomolgus CD3ε stalk-Fc(knob)-Avi/CD3δ …; assay: as above
Text: as §1, §2, §3

[7] = molecular target: T1, Human CD3ε stalk-Fc(knob)-Avi/CD3δ …; assay: SPR (Biacore T200); biotinylated human CD3ε/δ on SA chip, TCB injected at 2 µg/ml; normalised to anti-huIgG capture, relative to the non-stressed sample
Experimental: In order to assess the effect of the deamidation site removal and its effect on the stability of the antibodies, the anti-CD3 antibodies (in TCB format) were incubated for 14 days at 37° C., pH 7.4 and at 40° C., pH 6 and further analyzed by SPR for their binding capability to human CD3ε/δ. Samples stored at −80° C. pH 6 were used as reference. The reference samples and the samples stressed at 40° C. were in 20 mM His, 140 mM NaCl, pH 6.0, and the samples stressed at 37° C. in PBS, pH 7.4, all at a concentration of 1.0 mg/ml. After the stress period (14 days) samples in PBS were dialyzed back to 20 mM His, 140 mM NaCl, pH 6.0 for further analysis.
All SPR experiments were performed on a Biacore T200 instrument (GE Healthcare) at 25° C. with HBS-P+(10 mM HEPES, 150 mM NaCl pH 7.4, 0.05% Surfactant P20) as running and dilution buffer. Biotinylated human CD3ε/δ (see Example 3, SEQ ID NOs 24 and 25) as well as biotinylated anti-huIgG (Capture Select, Thermo Scientific, #7103262100) were immobilized on a Series S Sensor Chip SA (GE Healthcare, #29104992), resulting in surface densities of at least 1000 resonance units (RU). Anti-CD3 antibodies with a concentration of 2 μg/ml were injected for 30 s at a flow rate of 5 μl/min, and dissociation was monitored for 120 s. The surface was regenerated by injecting 10 mM glycine pH 1.5 for 60 s. Bulk refractive index differences were corrected by subtracting blank injections and by subtracting the response obtained from a blank control flow cell. For evaluation, the binding response 5 seconds after injection end was taken. To normalize the binding signal, the CD3 binding was divided by the anti-huIgG response (the signal (RU) obtained upon capture of the CD3 antibody on the immobilized anti-huIgG antibody). The relative binding activity was calculated by referencing each temperature stressed sample to the corresponding, non-stressed sample.

[8] = molecular target: T1, Human CD3ε stalk-Fc(knob)-Avi/CD3δ …; assay: SPR (Biacore T200, 25°C); monovalent IgG captured by anti-PG antibody on C1 chip, CD3ε/δ-Fc as analyte; t1/2 = ln 2/koff
Experimental: as §3
(§4) SPR experiments were performed as described in Example 3, with the monovalent IgG molecules prepared in Example 6.
(§5) To analyze the interaction to CD3, IgG molecules were captured for 240 s at 50 nM with a flow rate of 5 μl/min. Human and cynomolgus CD3ε stalk-Fc(knob)-Avi/CD3δ-stalk-Fc(hole) were passed at a concentration of 0.061-250 nM with a flow rate of 30 μl/min through the flow cells for 300 s. The dissociation was monitored for 800 s.

[9] = molecular target: T1, Human CD3ε stalk-Fc(knob)-Avi/CD3δ …; assay: SPR (Biacore T200, 25°C); monovalent IgG captured by anti-PG antibody on C1 chip, CD3ε/δ-Fc as analyte; 1:1 Langmuir fit; triplicates
Experimental: as §3, §4, §5

| fold increase of affinity compared to CD3orig and CD3opt [1] | fold higher binding half-life than CD3orig and CD3opt [2] | Kd [3] | koff [3] | kon [3] | Kd [4] | koff [4] | kon [4] | t1/2 [5] | t1/2 [6] | binding activity [%], 2 weeks at pH 6.0/40°C [7] | binding activity [%], 2 weeks at pH 7.4/37°C [7] | t1/2 [8] | Kd [9] | koff [9] | kon [9] | Binder |
| --- | --- | --- | --- | --- | --- | --- | --- | --- | --- | --- | --- | --- | --- | --- | --- | --- |
| ≤ 10 fold | ≤ 4 fold | 0.41 nM | 0.00153 s⁻¹ | 3.75e+06 M⁻¹ s⁻¹ | 0.21 nM | 0.00104 s⁻¹ | 4.89e+06 M⁻¹ s⁻¹ | 7.55 min | 11.1 min | 97% | 95% |  |  |  |  | TYRP1 T-cell bispecific antibody (TCB) comprising anti-CD3 antibody P035.093 (bispecific antibody, human IgG1, kappa, L234A L235A, 2+1 IgG CrossFab, inverted, with charge modifications; human IgG1 Fc with knob-into-hole and P329G LALA; also called P035.093 (in TCB format); TYRP1 TCB P035.093) heavy 1: not shown heavy 2: QVQLVQSGAEVKKPGASVKVSCKASGFNIKDYFLHWVRQAPGQGLEWMGWINPDNGNTVYAQKFQGRVTMTADTSTSTVYMELSSLRSEDTAVYYCTRRDYTYEKAALDYWGQGTLVTVSSASTKGPSVFPLAPSSKSTSGGTAALGCLVEDYFPEPVTVSWNSGALTSGVHTFPAVLQSSGLYSLSSVVTVPSSSLGTQTYICNVNHKPSNTKVDEKVEPKSCDKTHTCPPCPAPEAAGGPSVFLFPPKPKDTLMISRTPEVTCVVVDVSHEDPEVKFNWYVDGVEVHNAKTKPREEQYNSTYRVVSVLTVLHQDWLNGKEYKCKVSNKALGAPIEKTISKAKGQPREPQVCTLPPSRDELTKNQVSLSCAVKGFYPSDIAVEWESNGQPENNYKTTPPVLDSDGSFFLVSKLTVDKSRWQQGNVFSCSVMHEALHNHYTQKSLSLSP light 1: DIQMTQSPSSLSASVGDRVTITCRASGNIYNYLAWYQQKPGKVPKLLIYDAKTLADGVPSRFSGSGSGTDFTLTISSLQPEDVATYYCQHFWSLPFTFGQGTKLEIKRTVAAPSVFIFPPSDRKLKSGTASVVCLLNNFYPREAKVQWKVDNALQSGNSQESVTEQDSKDSTYSLSSTLTLSKADYEKHKVYACEVTHQGLSSPVTKSFNRGEC light 2: EVQLLESGGGLVQPGGSLRLSCAASGFTFSSYAMNWVRQAPGKGLEWVSRIRSKYNNYATYYADSVKGRFTISRDDSKNTLYLQMNSLRAEDTAVYYCVRASNFPASYVSYFAYWGQGTLVTVSSASVAAPSVFIFPPSDEQLKSGTASVVCLLNNFYPREAKVQWKVDNALQSGNSQESVTEQDSKDSTYSLSSTLTLSKADYEKHKVYACEVTHQGLSSPVTKSFNRGEC |
|  |  | 4.3 nM | 0.00621 s⁻¹ | 1.44e+06 M⁻¹ s⁻¹ | 0.86 nM | 0.0023 s⁻¹ | 2.67e+06 M⁻¹ s⁻¹ | 1.86 min | 5.02 min | 97% | 92% |  |  |  |  | TYRP1 T-cell bispecific antibody (TCB) comprising anti-CD3 antibody CD3opt (bispecific antibody, human IgG1, kappa, L234A L235A, 2+1 IgG CrossFab, inverted, with charge modifications; human IgG1 Fc with knob-into-hole and P329G LALA; also called CD3opt (in TCB format)) heavy 1: not shown heavy 2: QVQLVQSGAEVKKPGASVKVSCKASGFNIKDYFLHWVRQAPGQGLEWMGWINPDNGNTVYAQKFQGRVTMTADTSTSTVYMELSSLRSEDTAVYYCTRRDYTYEKAALDYWGQGTLVTVSSASTKGPSVFPLAPSSKSTSGGTAALGCLVEDYFPEPVTVSWNSGALTSGVHTFPAVLQSSGLYSLSSVVTVPSSSLGTQTYICNVNHKPSNTKVDEKVEPKSCDKTHTCPPCPAPEAAGGPSVFLFPPKPKDTLMISRTPEVTCVVVDVSHEDPEVKFNWYVDGVEVHNAKTKPREEQYNSTYRVVSVLTVLHQDWLNGKEYKCKVSNKALGAPIEKTISKAKGQPREPQVCTLPPSRDELTKNQVSLSCAVKGFYPSDIAVEWESNGQPENNYKTTPPVLDSDGSFFLVSKLTVDKSRWQQGNVFSCSVMHEALHNHYTQKSLSLSP light 1: DIQMTQSPSSLSASVGDRVTITCRASGNIYNYLAWYQQKPGKVPKLLIYDAKTLADGVPSRFSGSGSGTDFTLTISSLQPEDVATYYCQHFWSLPFTFGQGTKLEIKRTVAAPSVFIFPPSDRKLKSGTASVVCLLNNFYPREAKVQWKVDNALQSGNSQESVTEQDSKDSTYSLSSTLTLSKADYEKHKVYACEVTHQGLSSPVTKSFNRGEC light 2: EVQLLESGGGLVQPGGSLRLSCAASGFQFSSYAMNWVRQAPGKGLEWVSRIRSKYNNYATYYADSVKGRFTISRDDSKNTLYLQMNSLRAEDTAVYYCVRHTTFPSSYVSYYGYWGQGTLVTVSSASVAAPSVFIFPPSDEQLKSGTASVVCLLNNFYPREAKVQWKVDNALQSGNSQESVTEQDSKDSTYSLSSTLTLSKADYEKHKVYACEVTHQGLSSPVTKSFNRGEC |
|  |  | 6.54 nM | 0.00338 s⁻¹ | 517000 M⁻¹ s⁻¹ |  |  |  | 3.42 min |  | 95% | 65% |  |  |  |  | TYRP1 T-cell bispecific antibody (TCB) comprising anti-CD3 antibody CD3orig (bispecific antibody, human IgG1, kappa, L234A L235A, 2+1 IgG CrossFab, inverted, with charge modifications; human IgG1 Fc with knob-into-hole and P329G LALA; also called CD3orig (in TCB format)) heavy 1: not shown heavy 2: QVQLVQSGAEVKKPGASVKVSCKASGFNIKDYFLHWVRQAPGQGLEWMGWINPDNGNTVYAQKFQGRVTMTADTSTSTVYMELSSLRSEDTAVYYCTRRDYTYEKAALDYWGQGTLVTVSSASTKGPSVFPLAPSSKSTSGGTAALGCLVEDYFPEPVTVSWNSGALTSGVHTFPAVLQSSGLYSLSSVVTVPSSSLGTQTYICNVNHKPSNTKVDEKVEPKSCDKTHTCPPCPAPEAAGGPSVFLFPPKPKDTLMISRTPEVTCVVVDVSHEDPEVKFNWYVDGVEVHNAKTKPREEQYNSTYRVVSVLTVLHQDWLNGKEYKCKVSNKALGAPIEKTISKAKGQPREPQVCTLPPSRDELTKNQVSLSCAVKGFYPSDIAVEWESNGQPENNYKTTPPVLDSDGSFFLVSKLTVDKSRWQQGNVFSCSVMHEALHNHYTQKSLSLSP light 1: DIQMTQSPSSLSASVGDRVTITCRASGNIYNYLAWYQQKPGKVPKLLIYDAKTLADGVPSRFSGSGSGTDFTLTISSLQPEDVATYYCQHFWSLPFTFGQGTKLEIKRTVAAPSVFIFPPSDRKLKSGTASVVCLLNNFYPREAKVQWKVDNALQSGNSQESVTEQDSKDSTYSLSSTLTLSKADYEKHKVYACEVTHQGLSSPVTKSFNRGEC light 2: EVQLLESGGGLVQPGGSLRLSCAASGFTFSTYAMNWVRQAPGKGLEWVSRIRSKYNNYATYYADSVKGRFTISRDDSKNTLYLQMNSLRAEDTAVYYCVRHGNFGNSYVSWFAYWGQGTLVTVSSASVAAPSVFIFPPSDEQLKSGTASVVCLLNNFYPREAKVQWKVDNALQSGNSQESVTEQDSKDSTYSLSSTLTLSKADYEKHKVYACEVTHQGLSSPVTKSFNRGEC |
|  |  |  |  |  |  |  |  |  |  |  |  | 3.98 min | 4.94 nM | 0.0029 s⁻¹ | 587000 M⁻¹ s⁻¹ | anti-CD3 antibody CD3orig in monovalent human IgG1 format (antibody, also called CD3orig (in monovalent IgG format)) heavy: not shown DKTHTCPPCPAPEAAGGPSVFLFPPKPKDTLMISRTPEVTCVVVDVSHEDPEVKFNWYVDGVEVHNAKTKPREEQYNSTYRVVSVLTVLHQDWLNGKEYKCKVSNKALGAPIEKTISKAKGQPREPQVCTLPPSRDELTKNQVSLSCAVKGFYPSDIAVEWESNGQPENNYKTTPPVLDSDGSFFLVSKLTVDKSRWQQGNVFSCSVMHEALHNHYTQKSLSLSP light: EVQLLESGGGLVQPGGSLRLSCAASGFTFSTYAMNWVRQAPGKGLEWVSRIRSKYNNYATYYADSVKGRFTISRDDSKNTLYLQMNSLRAEDTAVYYCVRHGNFGNSYVSWFAYWGQGTLVTVSSASVAAPSVFIFPPSDEQLKSGTASVVCLLNNFYPREAKVQWKVDNALQSGNSQESVTEQDSKDSTYSLSSTLTLSKADYEKHKVYACEVTHQGLSSPVTKSFNRGEC |
